Source: the supplement of paper PMC10126150
± gives the standard deviation of the averaged measurements.
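Also: ATP exposure 15 min at 22 °C before imaging.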

These sequences were tested on ATP (assay: switch fluorescence ratio, 500 uM ATP over buffer (Cy3 cluster intensity, sum of 5 cycles each) (fold (ratio)); higher = stronger signal-on switching upon ATP binding; sequences stand for … in TCGTCGGCAGCGTCAGATGTGTATAAGAGACAGTTTTTTTTTTTTTTTTTTTTTTTTT…TC). Conditions: aptamer strand: ATP DNA aptamer (quencher-CACCTGGGGGAGTATTGCGGAGGAAGG + anchor), 100 nM annealed; ATP concentration: 500 uM.
Procedure, shortened: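 Imaging in selection buffer was followed by imaging after 15 min with 500 uM ATP at 22 °C, for Cy3-labelled switching-strand clusters annealed to 100 nM quencher-labelled ATP aptamer on a modified Illumina MiSeq flow-cell. Five of these buffer/ATP cycles ran, separated by NaOH stripping and re-annealing. The fluorescence ratio per cluster is summed target-cycle over summed buffer-cycle Cy3 intensity, averaged per switch-domain sequence; clusters outside 100-1000 RFU were removed.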
Work on GATGGAGGAT yielded a switch fluorescence ratio of 1.01 ± 0.021.
With GGCGGATATT the switch fluorescence ratio was 0.9975 ± 0.0069.
Work on TGAATGCTGA yielded a switch fluorescence ratio of 0.961 ± 0.017.
With AATACTCACG the switch fluorescence ratio was 1.5 ± 0.058.
In the case of CCTAAAAAGG, the switch fluorescence ratio is reported as 1.26 ± 0.29.
For AACATTAGGC, the switch fluorescence ratio was 1.05 ± 0.039.
With CATGGGAAAT the switch fluorescence ratio was 1.008 ± 0.005.
For CGCTCTTATT, the switch fluorescence ratio was 0.978 ± 0.016.
With CGCATATGTA the switch fluorescence ratio was 1.08 ± 0.033.
For ACGAGGGGGG, the switch fluorescence ratio was 1.02 ± 0.02.
For GGAGTAGACT, the switch fluorescence ratio was 1.02 ± 0.02.
AATGGGTGGT was tested, and the switch fluorescence ratio was 1 ± 0.017.
TTGTGTGTTT was tested, and the switch fluorescence ratio was 0.989 ± 0.024.
For CCGGCTTGCA, the switch fluorescence ratio was 1.13 ± 0.017.
With CGACGGGCGG the switch fluorescence ratio was 1.02 ± 0.032.
With TCGAATGGGG the switch fluorescence ratio was 0.961 ± 0.014.
ACTAATCGTG gave a switch fluorescence ratio of 1.02 ± 0.011.
For TTGAGGATCA, the switch fluorescence ratio was 1.02 ± 0.029.
With CGAGGGGA the switch fluorescence ratio was 1.018 ± 0.0082.
ATTTGAGGGG showed a switch fluorescence ratio of 0.998 ± 0.035.
GGGTGAGGTG showed a switch fluorescence ratio of 0.98 ± 0.068.
CGACTAGCGA showed a switch fluorescence ratio of 1.4082 ± 0.00063.
For CTCCAAGTGA, the switch fluorescence ratio was 1.315 ± 0.0062.
TTGGAGTACT was tested, and the switch fluorescence ratio was 1.09 ± 0.24.
For TCGGGGGAGG, the switch fluorescence ratio was 0.983 ± 0.022.
Sequence ATGGAAAGCA has a switch fluorescence ratio of 1.05 ± 0.029.
ATGAAAGTCT showed a switch fluorescence ratio of 0.976 ± 0.042.
For TACGGTGGGC, the switch fluorescence ratio was 0.977 ± 0.018.
Sequence GGGGTGACGT has a switch fluorescence ratio of 1.02 ± 0.031.
Work on CACAACTTAA yielded a switch fluorescence ratio of 0.9867 ± 0.0023.
GCGGCAGGGC was tested, and the switch fluorescence ratio was 1.05 ± 0.017.
AGGGGGTACT gave a switch fluorescence ratio of 1 ± 0.011.
With CGGGACGCGA the switch fluorescence ratio was 1.28 ± 0.043.
For TTGGCAAATG, the switch fluorescence ratio was 0.988 ± 0.025.
Sequence TCTATACTTT has a switch fluorescence ratio of 1 ± 0.021.
ATATGGTGGT showed a switch fluorescence ratio of 1.03 ± 0.023.
Work on AAGGTATCAT yielded a switch fluorescence ratio of 0.978 ± 0.018.
Work on GAATTATCTA yielded a switch fluorescence ratio of 0.996 ± 0.022.
TGGGGTTGGG gave a switch fluorescence ratio of 1 ± 0.044.
Sequence TTATTTGGTA has a switch fluorescence ratio of 0.986 ± 0.044.
In the case of TGGGGCATTT, the switch fluorescence ratio is reported as 1 ± 0.036.
TGTCAAAAAT showed a switch fluorescence ratio of 0.982 ± 0.043.
For GCTTGGGATT, the switch fluorescence ratio was 0.977 ± 0.029.
TCACAAGTTG showed a switch fluorescence ratio of 1.01 ± 0.019.
In the case of AATTAATTGG, the switch fluorescence ratio is reported as 0.994 ± 0.012.
With TGCTGGCCGG the switch fluorescence ratio was 0.98 ± 0.022.
Work on TGTGGGGTCG yielded a switch fluorescence ratio of 1.01 ± 0.058.
For GTAGGACGGG, the switch fluorescence ratio was 0.995 ± 0.012.
In the case of ACGGCATAAT, the switch fluorescence ratio is reported as 1.11 ± 0.013.
With ATATTGGTAC the switch fluorescence ratio was 1.034 ± 0.0013.
With AAATCGCAGA the switch fluorescence ratio was 1 ± 0.025.
Sequence TTATAATCCG has a switch fluorescence ratio of 0.988 ± 0.031.
TACTCTCCTT gave a switch fluorescence ratio of 1.09 ± 0.016.
AGGGGTTATC was tested, and the switch fluorescence ratio was 1.02 ± 0.026.
For CCATTTGTGT, the switch fluorescence ratio was 0.976 ± 0.023.
TTTGCCGAGT was tested, and the switch fluorescence ratio was 0.996 ± 0.044.
TTTGTGGTCC was tested, and the switch fluorescence ratio was 0.98 ± 0.039.
TGCTGGACTT gave a switch fluorescence ratio of 0.987 ± 0.015.
GTTTGGGGGG gave a switch fluorescence ratio of 1.04 ± 0.13.
With CTTTTGAGGG the switch fluorescence ratio was 0.974 ± 0.018.
TTTTTGGGAA showed a switch fluorescence ratio of 0.996 ± 0.029.
Sequence CAGAGTAAGC has a switch fluorescence ratio of 1.01 ± 0.021.
Work on TGGGGGCAAA yielded a switch fluorescence ratio of 0.987 ± 0.03.
Sequence AATTTTTATT has a switch fluorescence ratio of 1.039 ± 0.0073.
Sequence GCCTTCATGG has a switch fluorescence ratio of 0.98 ± 0.044.
GATAAGGAAG gave a switch fluorescence ratio of 1.02 ± 0.011.
Sequence TAAGGAATCG has a switch fluorescence ratio of 1 ± 0.043.
Sequence CGCCGCTTCA has a switch fluorescence ratio of 1.05 ± 0.067.
For GGGCTTGGAG, the switch fluorescence ratio was 1.012 ± 0.00086.
For GGGGGGAGGT, the switch fluorescence ratio was 1.02 ± 0.065.
Work on AGAGGGAAAC yielded a switch fluorescence ratio of 1.14 ± 0.3.
With ATTAGGACGT the switch fluorescence ratio was 0.984 ± 0.032.
For AATATGATGT, the switch fluorescence ratio was 1.05 ± 0.04.
TTATTAGTTA showed a switch fluorescence ratio of 0.988 ± 0.011.
GGTTTTAACA was tested, and the switch fluorescence ratio was 1 ± 0.051.
In the case of AAAAACAGGG, the switch fluorescence ratio is reported as 1.16 ± 0.097.
Work on TAAAAGTATG yielded a switch fluorescence ratio of 0.969 ± 0.054.
For CAGAGGGGGG, the switch fluorescence ratio was 0.994 ± 0.019.
TGAACTCTAG showed a switch fluorescence ratio of 1.02 ± 0.059.
For ATAGGCTATA, the switch fluorescence ratio was 0.976 ± 0.025.
In the case of ACTCATATAT, the switch fluorescence ratio is reported as 1.02 ± 0.0045.
TTTTTGTGGG gave a switch fluorescence ratio of 0.993 ± 0.023.
For CGCGTAGACA, the switch fluorescence ratio was 0.992 ± 0.055.
TTAGAAAAGG gave a switch fluorescence ratio of 1 ± 0.032.
CTTATGATAG showed a switch fluorescence ratio of 0.97 ± 0.013.
With TGGCATTGGT the switch fluorescence ratio was 0.983 ± 0.014.
In the case of TGTGAAGTTG, the switch fluorescence ratio is reported as 1.008 ± 0.0027.
In the case of CCTTACCTGT, the switch fluorescence ratio is reported as 1.07 ± 0.065.
With TTAGTTGGGC the switch fluorescence ratio was 1.01 ± 0.069.
GGATGCTAGG gave a switch fluorescence ratio of 1.01 ± 0.048.
With CGGCCGTTCG the switch fluorescence ratio was 1.1 ± 0.14.
With GACGCTAGGG the switch fluorescence ratio was 1 ± 0.052.
Sequence TTACTTAGGG has a switch fluorescence ratio of 1.14 ± 0.17.
Sequence ATGTTAAACG has a switch fluorescence ratio of 1.007 ± 0.0024.
Sequence CTCTGAAATC has a switch fluorescence ratio of 2.997 ± 0.01.
ATAAGCGTCG was tested, and the switch fluorescence ratio was 1.02 ± 0.013.
Sequence TTATCTTAAT has a switch fluorescence ratio of 1.01 ± 0.015.
With CGTGGAGTGG the switch fluorescence ratio was 0.996 ± 0.029.
Work on CGGGGTAAGG yielded a switch fluorescence ratio of 0.988 ± 0.024.
With GGTTTTGGTT the switch fluorescence ratio was 0.986 ± 0.025.
For TTTTTACCCG, the switch fluorescence ratio was 1.01 ± 0.013.
ATCCCGGGGA was tested, and the switch fluorescence ratio was 0.962 ± 0.014.
With CGCGTGGGCC the switch fluorescence ratio was 1.03 ± 0.026.
For ATGTGGGCAA, the switch fluorescence ratio was 1.08 ± 0.013.
Sequence TATAGGGCC has a switch fluorescence ratio of 1 ± 0.017.
For CTTGTGGTGT, the switch fluorescence ratio was 0.973 ± 0.019.
CTCGTGCCCG was tested, and the switch fluorescence ratio was 1.05 ± 0.075.
In the case of TGGGAGAAGT, the switch fluorescence ratio is reported as 0.983 ± 0.011.
Work on CCCCAGAGCT yielded a switch fluorescence ratio of 1.66 ± 0.066.
With CATGAGTTGT the switch fluorescence ratio was 1 ± 0.025.
With GTGTTAGGCT the switch fluorescence ratio was 0.978 ± 0.012.
ATCGCCCGTT showed a switch fluorescence ratio of 1.01 ± 0.016.
For AGACCTGGCC, the switch fluorescence ratio was 1.14 ± 0.011.
TAATCTGAGT was tested, and the switch fluorescence ratio was 1.01 ± 0.025.
ATCAGTATTA gave a switch fluorescence ratio of 1.02 ± 0.016.
Sequence CGGCCTCTGC has a switch fluorescence ratio of 1.15 ± 0.091.
Sequence AGTTTGCTCG has a switch fluorescence ratio of 0.971 ± 0.093.
TAGTAGAGT showed a switch fluorescence ratio of 0.9637 ± 0.0076.
AAGTCACATC was tested, and the switch fluorescence ratio was 1.22 ± 0.19.
TGAGTACTGA showed a switch fluorescence ratio of 1.02 ± 0.024.
Work on TTACCGGGCT yielded a switch fluorescence ratio of 1.051 ± 0.004.
GGTTTGAGGG showed a switch fluorescence ratio of 0.985 ± 0.028.
CGGCGGGCAA gave a switch fluorescence ratio of 1.81 ± 0.69.
For TTCTTTTTCA, the switch fluorescence ratio was 1.06 ± 0.067.
Sequence TACTCCAAGA has a switch fluorescence ratio of 2.98 ± 1.1.
In the case of AAGTCTTTTC, the switch fluorescence ratio is reported as 0.975 ± 0.036.
TATGGCATCG showed a switch fluorescence ratio of 0.99 ± 0.014.
GAGAGCGGTG was tested, and the switch fluorescence ratio was 0.9953 ± 0.0075.
In the case of TATGTGTTGC, the switch fluorescence ratio is reported as 1.03 ± 0.023.
TGGGGGTTGG was tested, and the switch fluorescence ratio was 1 ± 0.024.
CGGTATGTGA showed a switch fluorescence ratio of 0.985 ± 0.041.
Work on TGCTTTAAAG yielded a switch fluorescence ratio of 1 ± 0.037.
For GATTTGGGGT, the switch fluorescence ratio was 1 ± 0.033.
Sequence GTCACAGGCT has a switch fluorescence ratio of 1.02 ± 0.026.
CGAAGAGGTT gave a switch fluorescence ratio of 0.98936 ± 0.00044.
In the case of TTTGGGTATC, the switch fluorescence ratio is reported as 0.982 ± 0.041.
GGTTCTTAGT showed a switch fluorescence ratio of 0.978 ± 0.05.
Work on TGCCGGTAAA yielded a switch fluorescence ratio of 1.01 ± 0.051.
Work on TAAGTGGAAC yielded a switch fluorescence ratio of 1.002 ± 0.0063.
For TAGGGGTCTC, the switch fluorescence ratio was 1.07 ± 0.038.
In the case of GGCATTGAGG, the switch fluorescence ratio is reported as 0.988 ± 0.04.
For TAAGTGCAAG, the switch fluorescence ratio was 1.01 ± 0.033.
Sequence TATATGGCAT has a switch fluorescence ratio of 1.05 ± 0.085.
For AATTTTGGTA, the switch fluorescence ratio was 0.994 ± 0.016.
TTTGGTGGGA was tested, and the switch fluorescence ratio was 0.972 ± 0.026.
GGACCGGCTA was tested, and the switch fluorescence ratio was 0.998 ± 0.02.
CGTCGTTCTC showed a switch fluorescence ratio of 1.02 ± 0.07.
TTTCTTGTTT was tested, and the switch fluorescence ratio was 0.985 ± 0.055.
GTATGGAGCG gave a switch fluorescence ratio of 0.981 ± 0.019.
Work on GGTCATGAGG yielded a switch fluorescence ratio of 0.989 ± 0.023.
In the case of GCTCTATGTA, the switch fluorescence ratio is reported as 1.03 ± 0.014.
Sequence CATGAATTCA has a switch fluorescence ratio of 1.04 ± 0.033.
TATGTGGCAC gave a switch fluorescence ratio of 1.08 ± 0.061.
